Laboratory results: US7598032B2, “Thermostable DNA polymerases incorporating nucleoside triphosphates labeled with fluorescent dyes” (Roche Molecular Systems, priority 1997, dated 2009)

Experiments:
[1] = test system: M13 mp18 single-strand DNA template; assay: Cycle sequencing with fluorescein labeled ddNTPs (dye-terminator sequencing); format: biochemical
Description: The fluorescein dye labeled dideoxy terminators are reagents from the Applied Biosystems PRISM Sequenase® Terminator Sequencing Kits (Perkin-Elmer, Norwalk, Conn.) and were optimized for use with Sequenase DNA polymerase and alpha-thio dNTPs. Cycle sequencing reactions were performed in a 20 μl volume containing 50 mM Tris-HCl (pH 8.8), 2.0 mM MgCl2, 100 μM each dATP, dCTP, and dTTP (Perkin-Elmer, Norwalk, Conn.), 500 μM dITP (Pharmacia Biotech, Piscataway, N.J.), 0.2 μM13 mp18 single-strand DNA template (Perkin-Elmer), 0.15 μM LacZ Forward Primer (Perkin-Elmer), 5 units of G46D F667Y E681K Taq DNA polymerase, 20 units of rTth Thermostable Pyrophosphatase (U.S. Ser. No. 08/528,384), 0.05 μM Sequenase A Dye Terminator, 0.80 μM Sequenase C Dye Terminator, 0.08 μM Sequenase G Dye Terminator, and 1.0 μM Sequenase T Dye Terminator. All four Sequenase Dye Terminators were purchased from Perkin-Elmer. Reactions were placed in a preheated (75° C.) Perkin-Elmer GeneAmp® PCR System 9600 thermal cycler and subjected to 25 cycles of 96° C. for 10 seconds, 50° C. for 5 seconds, and 60° C. for 4 minutes. Dye labeled fragments were purified with Centri-Sep™ columns (Princeton Separations, Adelphia, N.J.) following the manufacturer's instructions and dried in a vacuum centrifuge. Pellets were resuspended in 6 μl of deionized formamide:50 mg/mL Blue dextran (in 25 mM EDTA, pH 8.0) 5:1 (v/v), heated at 90° C. for 3 minutes, and directly loaded onto a pre-electrophoresed 4% polyacrylamide/6 M urea gel and electrophoresed and analyzed on a Perkin-Elmer ABI PRISM' 377 DNA Sequencer according to the manufacturer instructions (ABI PRISM 377 DNA Sequencer User's Manual).

[2] = test system: primer annealed to an M13 template; assay: Extension rate assay; format: biochemical; settings: for extension rate, Base Pairs/Sec: 75° C
Description: The extension rate of G46D F667Y Taq and G46D F667Y E681K Taq were determined using an extension rate assay. In this experiment, the enzymes were used to extend a primer annealed to an M13 template in the presence of [α-^33P]dCTP. The extension reactions were denatured and the products analyzed by denaturing agarose gel electrophoresis.
The assay was performed as previously described (Lawyer et al., 1989, J. Biol. Chem. 264:6427) including the following modifications. The assay mixture was composed so the final concentration was 50 mM Bicine pH 8.3, 25° C., 2.5 mM MgCl2, 1 mM β-mercaptoethanol, 200 μM each of dATP, dGTP and dTTP (Perkin-Elmer), 100 μM dCTP (Perkin-Elmer) containing [α-^33P]dCTP (New England Nuclear, Boston, Mass.). M13 mp18 (Perkin-Elmer) was annealed to primer DG48, (SEQ ID NO: 11), and the equivalent of 0.085 pmoles of the annealed template was added to the assay mixture for each reaction. Forty-five μl of the assay mixture with template DNA was added to each of fourteen 0.5 ml eppendorf tubes. Each tube was preincubated at 75° C. for at least 30 seconds before the start of the polymerase reaction.
Polymerization was initiated in six of the fourteen assay tubes with 5 μl of G46D F667Y Taq DNA polymerase (2.5 units) or G46D F667Y E681K Taq DNA polymerase (1.25 units). Both enzymes were prepared as in Example I and the concentration used represents a predetermined excess amount of enzyme for the amount of substrate in the assay. As a control for the level of background, the remaining negative control was initiated with enzyme dilution buffer rather than polymerase. All reaction tubes were immediately vortexed briefly and incubated at 75° C. Two of the six tubes containing G46D F667Y Taq DNA polymerase were incubated 3 minutes, two for 6 minutes and two for 10 minutes. Similarly, two of the tubes started with G46D F667Y E681K Taq DNA polymerase were incubated for 30 seconds, two for 1 minute and two for 2 minutes. The control tubes were incubated for 3 minutes. The reactions were stopped by addition of 10 μl 60 mM EDTA and stored at 0° C.
For each reaction, a 25 μl aliquot of the 60 μl reaction was diluted with 1 ml 2 mM EDTA, 50 μg/ml sheared salmon sperm DNA as a carrier. The DNA was precipitated with TCA using standard procedures and collected on GF/C filter discs (Whatman). The amount of incorporated [α-^33P]dCMP was determined for each sample.
The remaining 35 μl of each duplicated were combined and the 70 μl sample was ethanol precipitated, dried and resuspended in 50 mM NaOH, 1 mM EDTA. Aliquots were removed from these samples such that an equal number of α-^33P] counts were taken from each. These aliquots were loaded on an 0.9% alkaline agarose gel, electrophoresed, dried and autoradiographed as previously described (Maniatis et al., 1982, In Molecular Cloning: A Laboratory Manual, Cold Spring Harbor Laboratory, Cold Spring Harbor, N.Y.) Bacteriophage lambda DNA cut with restriction enzyme HindIII (BRL) and 5′ end-labeled with [^32P] was used as a molecular weight standard.
The length in base pairs of the extension product in each sample was determined by comparison of the migration distance of each sample with the distance migrated by the lambda DNA size standard. The number of base pairs in each product was divided by the number of seconds each extension reaction incubated to give the extension rate as shown below.

B1: G46D F667Y E681K Taq: thermostable Taq DNA polymerase with G46D, F667Y and E681K mutations, encoded by plasmid pLK113 (protein, UniProt P19821 1-832, looked up, variant G46D F667Y E681K)
DNA polymerase I, thermostable: MRGMLPLFEPKGRVLLVDGHHLAYRTFHALKGLTTSRGEPVQAVYDFAKSLLKALKEDGDAVIVVFDAKAPSFRHEAYGGYKAGRAPTPEDFPRQLALIKELVDLLGLARLEVPGYEADDVLASLAKKAEKEGYEVRILTADKDLYQLLSDRIHVLHPEGYLITPAWLWEKYGLRPDQWADYRALTGDESDNLPGVKGIGEKTARKLLEEWGSLEALLKNLDRLKPAIREKILAHMDDLKLSWDLAKVRTDLPLEVDFAKRREPDRERLRAFLERLEFGSLLHEFGLLESPKALEEAPWPPPEGAFVGFVLSRKEPMWADLLALAAARGGRVHRAPEPYKALRDLKEARGLLAKDLSVLALREGLGLPPGDDPMLLAYLLDPSNTTPEGVARRYGGEWTEEAGERAALSERLFANLWGRLEGEERLLWLYREVERPLSAVLAHMEATGVRLDVAYLRALSLEVAEEIARLEAEVFRLAGHPFNLNSRDQLERVLFDELGLPAIGKTEKTGKRSTSAAVLEALREAHPIVEKILQYRELTKLKSTYIDPLPDLIHPRTGRLHTRFNQTATATGRLSSSDPNLQNIPVRTPLGQRIRRAFIAEEGWLLVALDYSQIELRVLAHLSGDENLIRVFQEGRDIHTETASWMFGVPREAVDPLMRRAAKTINYGVLYGMSAHRLSQKLAIPYEEAQAFIERYFQSFPKVRAWIEKTLEEGRRRGYVETLFGRRRYVPDLEARVKSVREAAERMAFNMPVQGTAADLMKLAMVKLFPRLEEMGARMLLQVHDELVLEAPKERAEAVARLAKEVMEGVYPLAVPLEVEVGIGEDWLSAKE
- accuracy of automated base-calling ([1]; for 450 bases, ABI PRISM 377 DNA Sequencer, 1 μM or less ddNTP): greater than 98.5%
- base-calling errors ([1]; for bases +10 to +460 from primer): 6 errors
- sequencing ladder with fluorescein dye family-labeled ddNTPs ([1]; sequencing reaction with fluorescein dye family-labeled ddNTPs): readable sequencing ladder
- extension rate, Base Pairs/Sec ([2]; Time 30 sec.): 36.7 Base Pairs/Sec
- extension rate, Base Pairs/Sec ([2]; Time 1 min.): 41.7 Base Pairs/Sec
- extension rate, Base Pairs/Sec ([2]; Time 2 min): 52.9 Base Pairs/Sec
- extension rate (in words) ([2]; relative to an enzyme with the F667Y mutation alone): significantly increased extension rate
